Measured values taken from US6455049B1, “Biologically active and particularly peptide molecules having a potentiating effect on growth hormone biological activity” (priority 1996, dated 2002).

Tested on: IGF-1
Test: Plasma IGF-1 level in hypophysectomised female Wistar rats (radioimmunoassay)
Format: in vivo
Settings: dose of 100 μg/rat
Description: In vivo experiments performed in the context of the present invention were carried out on 19 batches of hypophysectomised female rats of the Wistar strain, each batch comprising 5 rats. These animals were hypophysectomized when 4 weeks old and then kept under observation for one week. During an additional week of observation, the animals were weighed and those having gained more than 5 grams […] were discarded. In fact, it was assumed that the hypophysectomy of these animals was incomplete. They are thus not suitable for use in the framework of the present experiments.
Each animal selected receives a T4 thyroid hormone and cortisone replacement treatment. These hormones are administered subcutaneously each day at 50 μg/100 g body weight in the case of cortisone and 1 μg/100 g body weight in the case of T4. Usually a slight weight gain is observed following the injection of these hormones. This hormone supplementation treatment is administered for one week during which the animals continue to be weighed daily. These animals are from then on suitable for use in a comparative evaluation of the somatogenic activity of bGH incubated with or without different peptide constructions having the sequence 104-113 or the sequence 35-53 in the case of the GH peptide described in EP 284406. […]

B1: bovine growth hormone (protein)
chain: AFPAMSLSGLFANAVLRAQHLHQLAADTFKEFERTYIPEGQRYSIQNTQVAFCFSETIPAPTGKNEAQQKSDLELLRISLLLIQSWLGPLQFLSRVFTNSLVFGTSDRVYEKLKDLEEGILALMRELEDGTPRAGQILKQTYDKFDTNMRSDDALLKNYGLLSCFRKDLHKTETYLRVMKCRRFGEASCAF
B1 was tested, and the “IGF level relative to baseline levels in control hypophysectomized animals” value was “eight times higher than the baseline levels” and the “mean IGF levels” value (hypophysectomized rats) was 60 ng/mL.
